# Test results from paper PMC4446434, “A prophage-encoded actin-like protein required for efficient viral DNA replication in bacteria” (Nucleic Acids Research, 2015).
# B1: AlpC (Corynebacterium glutamicum ATCC 13032) (protein)
# chain: MTSAVNVQKKTTQKVLKPINTKNYSATDAVQTGQHGSALGSNIGVYTYTAGLDIGNGYVKGIIEATGDTTGTSVDVIDMPSAATRMSRPTEVPEPDDTAVAVTGADFFNHIDTNFNSPMVKGNYRYLCGTRSLSARGSLEEFDLVGNRSKAEQELSKVLVMAVLAAKAVKDFVAAHGRIPQVAVEGDPGVLRVHTYLALALPINEYVGHRHGYKAQFMGDGAANPAVHVVTVNNFETPATVQLIFERVEVIAEGASAQYAITAGGEVLMNGMLADVRSKGLALEGVTAGDVLQARHTIGVDVGEGTVNFPVFTDGRFNHDASRAYDKGYGTVLESAIQAMDDAGLAHNFNSRKQLADYLQRPPSALKRNFYTRVEQHVDQEAVFFVQDVAAEFARVLSDVGALTEVAFVYGGGSGPLRDRLHEALLIKAAEMGSEDTFPVLYLDSAYSRKLNREGLMIAARSIAAKARK
# notes: N-terminal His10 tag kept (His10-AlpC), expressed in E. coli BL21 (DE3) pLysS, HisTrap and Superdex 200 purified; encoded by cryptic prophage CGP3; polymerizes with nucleotide and Mg2+
# What was measured:
# [1] = molecular target: His10-AlpC (Cg1890), actin-like protein of the prophage CGP3 of Corynebacterium glutamicum ATCC 13032 (Corynebacterium glutamicum ATCC 13032 (prophage CGP3)); assay: co-sedimentation; AlpC and AlpA (or control protein) equimolar, 5 uM each, 20 ul, EMSA buffer (20 mM Tris/HCl pH 7.5, 50 mM KCl, 10 mM MgCl2, 5% glycerol, 0.5 mM EDTA, 0.005% Triton X-100), 30°C 30 min, with or without 1 mM ATP and/or 100 ng DNA (500 bp upstream of alpA); 16 100 x g 1 h; SDS-PAGE, Coomassie, ImageQuant TL
# purified protein [2] = substrate: Nc1nc2c(ncn2[C@@H]2O[C@H](COP(=O)(O)OP(=O)(O)OP(=O)(O)O)[C@@H](O)[C@H]2O)c(=O)[nH]1; assay: purified protein; assay type: biochemical, Corynebacterium glutamicum; conditions: 1 uM protein, equimolar MgSO4, 50 mM Tris/HCl pH 7.5, 150 mM NaCl, 10% glycerol, 30 °C
# purified protein [3] = substrate: Nc1ncnc2c1ncn2[C@@H]1O[C@H](COP(=O)(O)OP(=O)(O)OP(=O)(O)O)[C@@H](O)[C@H]1O; assay: purified protein; assay type: biochemical, Corynebacterium glutamicum; conditions: 1 uM protein, equimolar MgSO4, 50 mM Tris/HCl pH 7.5, 150 mM NaCl, 10% glycerol, 30 °C
molecule,measurement,setting,value
"His10-AlpA (Cg1891), adaptor protein of the prophage CGP3 of Corynebacterium glutamicum (natural protein)",percent of AlpA co-sedimented with AlpC (with ATP and DNA),[1],38%
same,percent of AlpA co-sedimented with AlpC (with ATP),[1],30%
B1,Km,purified protein [2],430 µM
same,Km,purified protein [3],200 µM
